Twelve molecules from patent US20090117104A1 (published 2009) can be followed below.

Changes are numbered by the printed parent chain. Names and notes keep the numbering of the source. Ends that are not written are not given here.

The target of test [1] is mutated human GLP-2R (human) (UniProt O95838). Description: cell-based or functional assay.
In another test the target is T1, mutated human GLP-2R (human, UniProt O95838 1-553).
T1 chain: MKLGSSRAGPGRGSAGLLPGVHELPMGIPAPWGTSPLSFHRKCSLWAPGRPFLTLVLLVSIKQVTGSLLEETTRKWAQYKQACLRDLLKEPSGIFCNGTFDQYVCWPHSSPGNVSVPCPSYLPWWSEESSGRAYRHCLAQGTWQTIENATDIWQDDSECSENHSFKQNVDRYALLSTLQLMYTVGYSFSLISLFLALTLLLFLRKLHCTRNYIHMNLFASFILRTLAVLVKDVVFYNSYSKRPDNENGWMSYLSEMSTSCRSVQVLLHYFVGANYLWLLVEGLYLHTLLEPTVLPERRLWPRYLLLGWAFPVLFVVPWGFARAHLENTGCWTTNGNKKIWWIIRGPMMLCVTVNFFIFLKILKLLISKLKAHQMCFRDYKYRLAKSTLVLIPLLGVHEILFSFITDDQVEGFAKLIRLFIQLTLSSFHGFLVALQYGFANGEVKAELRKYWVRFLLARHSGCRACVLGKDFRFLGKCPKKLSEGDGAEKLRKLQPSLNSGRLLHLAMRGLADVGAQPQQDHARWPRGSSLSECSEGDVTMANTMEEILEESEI
Description: cell-based or functional assay.

B1: A2G GLP-2 mimetibody linker length variant, SEQ ID NO: 8 (Fc fusion, not shown: a dimerising Fc or GST)
chain: HGDGSFSDEMNTILDNLAARDFINWLIQTKITDGGGGSGGGGSGGGGSCPPCP
modifications: cysteine pairing not given here; also: mimetibody: followed by CH2-CH3 domains not given here
On to B1, for which the EC50 (nM), cAMP expression assay in test [1] was found to be 12.7 nM.

B2: A2S GLP-2 IgG4 mimetibody (Fc fusion)
chain: HSDGSFSDEMNTILDNLAARDFINWLIQTKITDGSGGGSGTLVTVSSESKYGPPCPPCPAPEAAGGPSVFLFPPKPDTLMISRTPEVTCVVVDVSQEDPEVQFNWYVDGVEVHNAKTKPREEQFNSTYRVVSVLTVLHQDWLNGKEYKCKVSNKGLPSSIEKTISKAKGQPREPQVYTLPPSQEEMTKNQVSLTCLVKGFYPSDIAVEWESNGQPENNYKTTPPVLDSDGSFFLYSRLTVDKSRWQEGNVFSCSVMHEALHNHYTQKSLSLSLGK
With B2, the “potency in the cAMP expression assay relative to the corresponding peptide” value in the test with mutated human GLP-2R was ~4 fold less.
Regarding HGDGSFSDEMNTILDGQAARDFINWLIQTKITD [GLP-2(A2G, N16G, L17Q)], in the test with mutated human GLP-2R, the “activity in the cAMP expression assay relative to wild type GLP-2” value turned out to be 2 fold less.
For the molecule HGDGSFSDEMNTILDNQAARDFINWLIQTKITD [GLP-2(A2G, L17Q)], the “activity in the cAMP expression assay relative to wild type GLP-2” value in the test with mutated human GLP-2R worked out at 3 fold less.

B3: A2G GLP-2 mimetibody linker length variant, SEQ ID NO: 6 (Fc fusion, not shown: a dimerising Fc or GST)
chain: HGDGSFSDEMNTILDNLAARDFINWLIQTKITDGGGGSCPPCP
modifications: cysteine pairing not given here; also: mimetibody: followed by CH2-CH3 domains not given here
In test [1], B3 displayed an EC50 (nM), cAMP expression assay of 40 nM.

B4: GLP-2 mimetibody Pro substitution variant, SEQ ID NO: 42 (Fc fusion, not shown: a dimerising Fc or GST)
chain: HGDGSFSDEMNTILDNLAARDFINWLIQTKITDGSGGGSGALVPVSSESKYGPPCPPCP
For the molecule B4, the EC50 (nM), cAMP expression assay in test [1] came to 3.6 nM.

B5: GLP-2 mimetibody Pro substitution variant, SEQ ID NO: 44 (Fc fusion, not shown: a dimerising Fc or GST)
chain: B4 chain with P44A, S47P
The molecule B5 gave an EC50 (nM), cAMP expression assay in test [1] of 7.7 nM.

B6: GLP-2 mimetibody Pro substitution variant, SEQ ID NO: 45 (Fc fusion, not shown: a dimerising Fc or GST)
chain: B4 chain with P44A, Y51P
B6 showed an EC50 (nM), cAMP expression assay in test [1] of 5.8 nM.

B7: GLP-2 mimetibody Pro substitution variant, SEQ ID NO: 43 (Fc fusion, not shown: a dimerising Fc or GST)
chain: B4 chain with P44A, S46P
As to B7, the EC50 (nM), cAMP expression assay in test [1] is 4.8 nM.

B8: A2G GLP-2 mimetibody linker length variant, SEQ ID NO: 10 (Fc fusion, not shown: a dimerising Fc or GST)
chain: HGDGSFSDEMNTILDNLAARDFINWLIQTKITDGGGGSGGGGSGGGGSGGGGSGGGGSCPPCP
For B8, the EC50 (nM), cAMP expression assay in test [1] was 2.1 nM.

B9: A2G GLP-2 mimetibody linker length variant, SEQ ID NO: 9 (Fc fusion, not shown: a dimerising Fc or GST)
chain: HGDGSFSDEMNTILDNLAARDFINWLIQTKITDGGGGSGGGGSGGGGSGGGGSCPPCP
modifications: cysteine pairing not given here; also: mimetibody: followed by CH2-CH3 domains not given here
In turn, B9 displayed an EC50 (nM), cAMP expression assay in test [1] of 4.6 nM.

B10: A2G GLP-2 mimetibody linker length variant, SEQ ID NO: 7 (Fc fusion, not shown: a dimerising Fc or GST)
chain: HGDGSFSDEMNTILDNLAARDFINWLIQTKITDGGGGSGGGGSCPPCP
modifications: cysteine pairing not given here; also: mimetibody: followed by CH2-CH3 domains not given here
On to B10, for which the EC50 (nM), cAMP expression assay in test [1] was 22.5 nM.
